Assay results: US20080220450A1, “Population Based Prediction Methods for Immune Response Determinations and Methods for Verifying Immunological Response Data” (Danisco US, Inc., Genencor Division, priority 2004, published 2008)

B1: Amylase: Bacillus licheniformis alpha amylase, industrial enzyme, Swissprot accession number P06278 (protein, UniProt P06278 30-512, looked up)
Alpha-amylase: ANLNGTLMQYFEWYMPNDGQHWKRLQNDSAYLAEHGITAVWIPPAYKGTSQADVGYGAYDLYDLGEFHQKGTVRTKYGTKGELQSAIKSLHSRDINVYGDVVINHKGGADATEDVTAVEVDPADRNRVISGEHRIKAWTHFHFPGRGSTYSDFKWHWYHFDGTDWDESRKLNRIYKFQGKAWDWEVSNENGNYDYLMYADIDYDHPDVAAEIKRWGTWYANELQLDGFRLDAVKHIKFSFLRDWVNHVREKTGKEMFTVAEYWQNDLGALENYLNKTNFNHSVFDVPLHYQFHAASTQGGGYDMRKLLNSTVVSKHPLKAVTFVDNHDTQPGQSLESTVQTWFKPLAYAFILTRESGYPQVFYGDMYGTKGDSQREIPALKHKIEPILKARKQYAYGAQHDYFDHHDIVGWTREGDSSVANSGLAALITDGPGGAKRMYVGRQNAGETWHDITGNRSEPVVINSEGWGEFHVNGGSVSIYVQR
B2: ALCALASE ®: ALCALASE® enzyme, commercially available from Novo, Swissprot accession number P00780 (protein, UniProt P00780 106-379, looked up)
Subtilisin Carlsberg: AQTVPYGIPLIKADKVQAQGFKGANVKVAVLDTGIQASHPDLNVVGGASFVAGEAYNTDGNGHGTHVAGTVAALDNTTGVLGVAPSVSLYAVKVLNSSGSGSYSGIVSGIEWATTNGMDVINMSLGGASGSTAMKQAVDNAYAKGVVVVAAAGNSGSSGNTNTIGYPAKYDSVIAVGAVDSNSNRASFSSVGAELEVMAPGAGVYSTYPTNTYATLNGTSMASPHVAGAAALILSKHPNLSASQVRNRLSSTATYLGSSFYYGKGLINVEAAAQ
B3: BPN′ Y217L: B. amyloliquifaciens subtilisin BPN′ Y217L, Swissprot accession number P00782 (protein, UniProt P00782 108-382, looked up, variant Y217L)
Subtilisin BPN': AQSVPYGVSQIKAPALHSQGYTGSNVKVAVIDSGIDSSHPDLKVAGGASMVPSETNPFQDNNSHGTHVAGTVAALNNSIGVLGVAPSASLYAVKVLGADGSGQYSWIINGIEWAIANNMDVINMSLGGPSGSAALKAAVDKAVASGVVVVAAAGNEGTSGSSSTVGYPGKYPSVIAVGAVDSSNQRASFSSVGPELDVMAPGVSIQSTLPGNKYGALNGTSMASPHVAGAAALILSKHPNWTNTQVRSSLENTTTKLGDSFYYGKGLINVQAAAQ
B4: B. lentus subtilisin: Bacillus lentus subtilisin, industrial protease, Swissprot accession number P29600 (protein, UniProt P29600 1-269, looked up)
Subtilisin Savinase: AQSVPWGISRVQAPAAHNRGLTGSGVKVAVLDTGISTHPDLNIRGGASFVPGEPSTQDGNGHGTHVAGTIAALNNSIGVLGVAPSAELYAVKVLGASGSGSVSSIAQGLEWAGNNGMHVANLSLGSPSPSATLEQAVNSATSRGVLVVAASGNSGAGSISYPARYANAMAVGATDQNNNRASFSQYGAGLDIVAPGVNVQSTYPGSTYASLNGTSMATPHVAGAAALVKQKNPSWSNVQIRNHLKNTATSLGSTNLYGSGLVNAEAATR
B5: sTNFR1: soluble tumor necrosis factor receptor 1 (protein, UniProt P19438 30-211, looked up)
extracellular domain: LVPHLGDREKRDSVCPQGKYIHPQNNSICCTKCHKGTYLYNDCPGPGQDTDCRECESGSFTASENHLRHCLSCSKCRKEMGQVEISSCTVDRDTVCGCRKNQYRHYWSENLFQCFNCSLCLNGTVHLSCQEKQNTVCTCHAGFFLRENECVSCSNCKKSLECTKLCLPQIENVKGTEDSGTT
modifications: extracellular domain

System: CD4+ T-cells and dendritic cells
Experiment: I-MUNE assay: CD4+ T-cell proliferation to 15-mer peptide sets presented by dendritic cells
Type: cell-based, human
Parameters: Structure Value: scale not given here
Details: Table 1
Method: All peptides were obtained from a commercial source (Mimotopes, San Diego, C-A). For the I-MUNE® assay system described herein, 15-mer peptides offset by 3 amino acids that described the entire sequence of the proteins of interest were synthesized in a multipin format (See, Maeji et al., J. Immunol. Meth., 134:23-33 [1990]). Peptides were resuspended in DMSO at approximately 1 to 2 mg/ml, and stored at −70° C. prior to use. Each peptide was tested at least in duplicate, although for small peptide sets (e.g., Ber e 1), the peptides were routinely tested in triplicate.
Volunteer donor human blood buffy coat samples were obtained from two commercial sources (Stanford Blood Center, Palo Alto, Calif., and the Sacramento Medical Foundation, Sacramento, Calif.). Buffy coat samples were further purified by density separation. Each sample was HLA typed for HLA-DR and HLA-DQ using a commercial PCR-based kit (Bio-Synthesis).
Monocytes were purified by adherence to plastic in AIM V medium (Gibco/Life Technologies). Adherent cells were cultured in AIM V media containing 500 units/ml of recombinant human IL-4 (Endogen) and 800 units/ml recombinant human GM-CSF (Endogen) for 5 days. On day 5, recombinant human IL-1α (Endogen) and recombinant human TNF-α (Endogen) were added to 50 units/ml and 0.2 units/ml, respectively. On day 7, the fully matured dendritic cells were treated with 50 μg/ml mitomycin C (Sigma) for 1 hour at 37° C. Treated dendritic cells were dislodged with 50 mM EDTA in PBS, washed in AIM V medium, counted, and resuspended in AIM V media at 2×10^5 cells/ml.
CD4^+ T-cells were purified by negative selection from frozen aliquots of human peripheral blood mononuclear cells (PBMC) using Cellect CD4 columns (Cedarlane). […] CD4^+ T-cells were resuspended in AIM V media at 2×10^6 cells per ml.
CD4^+ T-cells and dendritic cells were plated in round-bottomed 96 well format plates at 100 μl of each cell mix per well. Peptide was added to a final concentration of approximately 5 ug/ml in 0.25-0.5% DMSO. Control wells contained 0.5% DMSO without added peptide. Each peptide was tested in duplicate. Cultures were incubated at 37° C., in 5% CO2 for 5 days. On day 5, 0.5 uCi of tritiated thymidine (NEN DuPont) was added to each well. On day 6, the cultures were harvested onto glass fiber mats using a TomTec manual harvester (TomTec), then processed for scintillation counting. Proliferation was assessed by determining the average counts per minute (CPM) value for each set of duplicate wells (TriLux Beta). This method is also described in U.S. Pat. No. 6,218,165 and Stickler et al., J. Immunother. 23: 654-660 (2000), both of which are herein incorporated by reference.
For each individual buffy coat sample, the average CPM values obtained in the I-MUNE® assay for all of the peptides were analyzed. The average CPM values for each peptide were divided by the average CPM value for the control (DMSO only) wells to determine the “stimulation index” (SI). Donors were tested with each peptide set until an average of at least two responses per peptide were compiled. The data for each protein was graphed showing the percent responders to each peptide within the set. A positive response was collated if the SI value was equal to or greater than 2.95. This value was chosen as it approximates a difference of three standard deviations in a normal population distribution. For each protein assessed, positive responses to individual peptides by individual donors were compiled. To determine the background response for a given protein, the percent responders for each peptide in the set were averaged and a standard deviation was calculated. SI values for each donor were compiled for each peptide set, and the percent of responders reported.

| Molecule | Number of epitope regions |
| --- | --- |
| B1 | 3 |
| B2 | 1 |
| B3 | 2 |
| B4 | 1 |

Same assay, conditions: Table 1; from compiled responses

| Molecule | Structure Value |
| --- | --- |
| B1 | 0.81 |
| B2 | 0.72 |
| B3 | 0.53 |
| B4 | 0.64 |

Same assay, conditions: Table 1; positive response SI of 2.95 or greater; community donors

| Molecule | Responses per peptide |
| --- | --- |
| B1 | 2.29 |
| B2 | 2.16 |
| B3 | 3.65 |
| B4 | 2.24 |

Same assay, conditions: Table 3

| Molecule | Background % |
| --- | --- |
| B1 | 2.79% |
| B2 | 2.35% |
| B3 | 3.65% |
| B4 | 3.45% |
| B5 | 4.2% |

Same assay, conditions: Table 3; SI>2.95

| Molecule | Response/Peptide |
| --- | --- |
| B1 | 2.29 |
| B2 | 2.16 |
| B3 | 3.61 |
| B4 | 2.24 |
| B5 | 2.9 |

Same assay, conditions: Table 3; Stanford and Sacramento donors

| Molecule | Structure Value |
| --- | --- |
| B1 | 0.81 |
| B2 | 0.72 |
| B3 | 0.65 |
| B4 | 0.65 |
| B5 | 0.47 |

Same assay, conditions: Table 4; number of prominent epitopes

| Molecule | Prominent Epitope |
| --- | --- |
| B3 | 2 |

Same assay, conditions: Table 4; parent, dataset of 113 individuals

| Molecule | Structure Value |
| --- | --- |
| B3 | 0.53 |

Same assay, conditions: Table 5; background response value

| Molecule | Background +/− sd |
| --- | --- |
| B5 | 2.23 +/− 1.95 |

Same assay, conditions: Table 5; determined experimentally

| Molecule | Responses/peptide found |
| --- | --- |
| B5 | 1.54 |

Same assay, conditions: Table 21; parent, I-MUNE assay data

| Molecule | SIV (structure index value) |
| --- | --- |
| B3 | 0.53 |

Same assay, conditions: average percent responders per peptide, +/− sd where given

| Molecule | background response |
| --- | --- |
| B1 | 2.80+/−3.69% |
| B2 | 2.35% |
| B3 | 3.62% |
| B4 | 3.45+/−2.90% |

Same assay, conditions: compiled responses

| Molecule | Structure Value |
| --- | --- |
| B1 | 0.81 |
| B2 | 0.72 |
| B3 | 0.53 |
| B4 | 0.64 |

Same assay, conditions: peptide regions of the protein

| Molecule | Prominent responses noted at amino acids |
| --- | --- |
| B2 | 19-33 |
| B4 | 160-174 |
